Publication doi:10.1101/2023.10.05.560930 (bioRxiv, 2023)
Where no end group is shown, it is not given here. Cy5 = Cy5 fluorophore

Assays:
Assay in all cases: fluorescence polarisation
LC3B(1-120) = LC3B(1-120) (human, UniProt Q9GZQ8 1-120)
LC3A(1-120) = LC3A(1-120) (human, UniProt Q9H492 1-120)
GABARAP(1-116) = GABARAP(1-116) (human, UniProt O95166 1-116)
[…]1(1-117) = […]1(1-117) (human, UniProt Q9H0R8 1-117)
[…]2(1-117) = […]2(1-117) (human, UniProt P60520 1-117)
LC3C(1-126) = LC3C(1-126) (human, UniProt Q9BXW4 1-126)

Measured: binding result

SDNSSGGDDDWTHLSSK-Cy5 [p62-LIR peptide linked to a Cy5 fluorophore]
binds: all assays above
